Molecular target: the molecule itself
Test: NMR structure

B1: XCL1 CC5 (A36C A49C), disulfide-locked XCL1dim variant (natural protein, UniProt P47992 22-114, looked up)
chain: VGSEVSDKRTCVSLTTQRLPVSRIKTYTITEGSLRCVIFITKRGLKVCCDPQATWVRDVVRSMDRKSNTRNNMIQTKPTGTQQSTNTAVTLTG
  stoichiometry N: 2
